Test results reported in PMC6849236.

How the values were obtained:
[1] = target: CBM3-CtCoh-CcsCoh-RfCoh synthetic mini-scaffoldin (C. thermocellum ATCC 27405 | C. cellulovorans ATCC 35296 | R. flavefaciens)
[2] = target: CBM3-CtCoh-CcsCoh-RfCoh synthetic mini-scaffoldin (C. thermocellum ATCC 27405 | C. cellulovorans ATCC 35296 | R. flavefaciens); assay: pull-down; RAC pull-down: cell lysate supernatants of dockerin-containing enzymes (in slight excess) mixed with 0.5 mL cell lysate supernatant of CBM3-Scaf3, 2 mg RAC added, room temperature 5 min; RAC pellet washed three times in 100 mM HEPES pH 7.5, 50 mM NaCl, 1 mM CaCl2; 12% SDS-PAGE, band intensities

Sequence of CDP-CtDoc (A3DH67 whole entry): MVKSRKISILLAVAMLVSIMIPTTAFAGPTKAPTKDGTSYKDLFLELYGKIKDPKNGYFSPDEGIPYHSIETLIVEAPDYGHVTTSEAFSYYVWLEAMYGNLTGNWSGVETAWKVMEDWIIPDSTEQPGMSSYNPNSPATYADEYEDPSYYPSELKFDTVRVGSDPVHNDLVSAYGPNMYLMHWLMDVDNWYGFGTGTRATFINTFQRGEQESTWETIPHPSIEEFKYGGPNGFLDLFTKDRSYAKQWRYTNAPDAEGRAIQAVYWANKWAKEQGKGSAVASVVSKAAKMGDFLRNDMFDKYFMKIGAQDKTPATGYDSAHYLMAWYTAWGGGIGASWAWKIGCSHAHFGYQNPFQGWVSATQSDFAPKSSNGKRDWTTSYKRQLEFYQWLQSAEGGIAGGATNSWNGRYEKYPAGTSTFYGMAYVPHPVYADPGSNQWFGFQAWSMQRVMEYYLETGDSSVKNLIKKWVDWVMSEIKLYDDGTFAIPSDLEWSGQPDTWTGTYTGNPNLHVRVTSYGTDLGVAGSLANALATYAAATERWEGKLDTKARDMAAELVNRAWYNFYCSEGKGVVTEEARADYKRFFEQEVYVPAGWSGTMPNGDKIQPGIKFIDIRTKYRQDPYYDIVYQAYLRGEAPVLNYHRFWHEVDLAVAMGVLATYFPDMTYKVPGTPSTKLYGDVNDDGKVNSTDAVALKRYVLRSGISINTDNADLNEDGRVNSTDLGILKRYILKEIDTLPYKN

| specific activity of RAC immobilized CBM3-Scaf3/PGM-CcsDoc; 0.5 mL cell lysate supernatant of CBM3-Scaf3 mixed with PGM-CcsDoc supernatant, highest at 2 mL [1] [U mL^−1] | stoichiometry N [2] | specific activity of RAC immobilized CBM3-Scaf3/PGM-RfDoc; 0.5 mL cell lysate supernatant of CBM3-Scaf3 mixed with PGM-RfDoc supernatant, highest at 2 mL [1] [U mL^−1] | specific activity of RAC immobilized CBM3-Scaf3/CDP-CtDoc; 0.5 mL cell lysate supernatant of CBM3-Scaf3 mixed with different volumes of CDP-CtDoc supernatant, highest at 1 mL, no increase with excess [1] [U mL^−1] | specific activity of RAC immobilized CBM3-Scaf3/CDP-RfDoc; 0.5 mL cell lysate supernatant of CBM3-Scaf3 mixed with CDP-RfDoc supernatant, highest at 2 mL [1] [U mL^−1] | Substance |
| --- | --- | --- | --- | --- | --- |
| 23 | 1 |  |  |  | PGM-CcsDoc (enzyme) |
|  | 1 | 22.4 |  |  | PGM-RfDoc (from UniProt Q9AE53 787-879) (enzyme) |
|  | 1 |  | 0.72 |  | CDP-CtDoc (from UniProt A3DH67 673-741) (enzyme) |
|  | 1 |  |  | 0.71 | CDP-RfDoc (from UniProt Q9AE53 787-879) (enzyme) |
